Results published in the supplement of paper PMC7125110.
± gives the standard error. This sample holds only a part of the variants without activity.

B1: glmS ribozyme (parent)
chain: AUAAAAGCGCCAGAACUACAGAAAUGUAGUUGACGAGGAGGAGGUUUAUCGAAUUUUCGGCGGAUGCCUCCAAA

What was measured:
Details in all cases: with glucosamine-6-phosphate
glucosamine-6-phosphate [1] = variants of: B1; experiment: self-cleavage kobs at 40 uM GlcN6P; higher = faster cleavage; RNA array
Method in brief: (§1)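 E. coli RNA polymerase transcribed barcoded ribozyme variants in situ on sequenced MiSeq chips, which were tracked via a hybridised Cy3 probe at 37 °C. Tiles were imaged over ~14 h after glucosamine-6-phosphate (40 μM to 10 mM) in HEPES/KCl/Mg(OAc)2 buffer was flowed in. Normalised per-tile medians were fit to one- or two-exponential decays for kobs, and kcat and KM came from weighted Michaelis–Menten fits.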

glucosamine-6-phosphate [2] = variants of: B1; experiment: self-cleavage kobs at 160 uM GlcN6P; higher = faster cleavage; RNA array
Method in brief: as §1

glucosamine-6-phosphate [3] = variants of: B1; experiment: self-cleavage kobs at 640 uM GlcN6P; higher = faster cleavage; RNA array
Method in brief: as §1

glucosamine-6-phosphate [4] = variants of: B1; experiment: self-cleavage kobs at 2500 uM GlcN6P; higher = faster cleavage; RNA array
Method in brief: as §1

glucosamine-6-phosphate [5] = variants of: B1; experiment: self-cleavage kobs at 10000 uM GlcN6P; higher = faster cleavage; RNA array
Method in brief: as §1

Variant | self-cleavage kobs at 40 uM GlcN6P (glucosamine-6-phosphate [1]) [s⁻¹] | self-cleavage kobs at 160 uM GlcN6P (glucosamine-6-phosphate [2]) [s⁻¹] | self-cleavage kobs at 640 uM GlcN6P (glucosamine-6-phosphate [3]) [s⁻¹] | self-cleavage kobs at 2500 uM GlcN6P (glucosamine-6-phosphate [4]) [s⁻¹] | self-cleavage kobs at 10000 uM GlcN6P (glucosamine-6-phosphate [5]) [s⁻¹]
AUAAAAGCGCCACAACUACAGAAAUGUAGUUGACGAGGAGGAGGUUUAUCGAAUUUUCGACGGAUGCCUCCAAA [G13C G60A] | < 1e-05 | < 1e-05 | < 1e-05 | < 1e-05 | < 1e-05
AUAAAAGCGCCAGAUCUACAGAAAUGUAGUUGACGAGGUGGAGGUAUAUCGAAUUUUCGGCGGAUGCCUCCAAA [A15U A39U U46A] | < 1e-05 |  |  |  | 
AUAAAAGCGCAAGAACUACAGAAAUGUAGUUGACGAGGAGGAGGUUUAUCGAAUUUUCCGCGGAUGCCUCCAAA [C11A G59C] | < 1e-05 | < 1e-05 | < 1e-05 |  | 
AUAAAAACGCCAGAACUACAGAAAUGUAGUUGACGUGGAGGAGGUUUAUCGAAUUUUCGGCGGAUGCCUCCAAA [G7A A36U] | < 1e-05 | < 1e-05 | < 1e-05 | < 1e-05 | 
AUAAAGGCGCCAGAACUACAGAAAUGUAGUUGACGAGGAGGAGGUUUAUGGAAUUUUCGGCGGAUGCCUCCAAA [A6G C50G] | 0.000151 ± 3.1e-05 | 9.76e-05 ± 3.1e-05 | 0.000503 ± 0.00012 | 0.000106 ± 3.4e-05 | 3.84e-05 ± 1.3e-05
AUAAAAGCGCCAGAACUACAGAAAUGUAGUUGACGAGGAGGAGGUUUCUCGAAUUUUCGGCGGAUGCCUACAAA [A48C C70A] | < 1e-05 |  | < 1e-05 |  | 
AUAAAAGCGUCAGAACUACAGAAAUGUAGUUGUCGAGGAGGAGGUUUAUCGUAUUUUCGGCGGAUGCCUCCAAA [C10U A33U A52U] | < 1e-05 |  | < 1e-05 |  | < 1e-05
AUAAAAGCGCCAGAACUACAGAAAUGUAGUUGUCGAGGAGGAGGUUUAUCGAAUUUUCGGCGGUUGCCUCCAAA [A33U A64U] | < 1e-05 |  | < 1e-05 |  | < 1e-05
AUAAAAGCGCCAGAACUACAGAAAUGUAGUUGAAGAGGAGGAGGUUUAUCGAAUUUUCGGCCGAUGCCUCCAAA [C34A G62C] | < 1e-05 | < 1e-05 | < 1e-05 | < 1e-05 | < 1e-05
AUAAAAGCGCGAGAACUACAGAAAUGUAGUUGACGAGGAGGAGGUUUAUCGAAUUUUCGCCGGAUGCCUCCAAA [C11G G60C] | < 1e-05 | < 1e-05 | < 1e-05 |  | < 1e-05
AUAAAAGCGCCAGAUCUACAGAAAUGUAGUUGACGAGGAGGCGGUUUAUCGAAUUUUCGGCGGAUGCGUCCAAA [A15U A42C C68G] | < 1e-05 |  |  |  | 
AUAAAGGCGCCAGAACUACAGAAAUGUAGUUAACGAGGAGGAGGUUUAGCGAAUAUUCGGCGGAUGCCUCCAAA [A6G G32A U49G U55A] | < 1e-05 |  |  |  | < 1e-05
AUAAAAGCGUCAGAACUACAGAAAUGUAGUUGACGAGGAGGAGGUUUAUCGAAUUUUAGGCGGAUGCAUCCAAA [C10U C58A C68A] | < 1e-05 |  |  |  | < 1e-05
AUAAAAGCGCCAGAACUACAGAAAUGUAGUUGACGAGGAGGAGGUUUAUAGAAUUUUCCGCGGAUGCCUCCAAA [C50A G59C] | < 1e-05 |  | < 1e-05 | < 1e-05 | < 1e-05
AUAAAAGCGCCAGAACUACAGAAAUGUAGUUGACGAGGAGGAGGUAUACCGAAUUUUCGGCGGAUGCCUCCAAA [U46A U49C] | < 1e-05 | < 1e-05 | < 1e-05 | < 1e-05 | < 1e-05
AUAAAAGCGCCAGAACUACAGAAAUGUAGUUGACGAGGAGCAGGUUUUUCGAAUUUUCGGCGGAUGCCUCCAAA [G41C A48U] | < 1e-05 | < 1e-05 | < 1e-05 |  | 
AUAAAAGCGCCAGAACUACAGAAAUGUAGAUGACGAGGAGGAGGUUUAUCUAAAUUUCGGCGGAUGCCUCCAAA [U30A G51U U54A] | < 1e-05 |  |  |  | < 1e-05
AUAAAAGCGCCAGAACUACAGAAAUGUAGUUGACGAGGAGUAGGUUUAUCGAAUUUUCGGAGGAUGCCUCCAAA [G41U C61A] | < 1e-05 | < 1e-05 | < 1e-05 |  | < 1e-05
AUAAAAGCGCCAGAAUUACAGAAAUGUAGUUGACGAGGAGGUGGUUUAUCGAAUUUUCGGCAGAUGACUCCAAA [C16U A42U G62A C67A] | < 1e-05 |  |  |  | < 1e-05
AUAAAAGCGCCAGGACUACAGAAAUGUAGUUGAAGAGGAGGAGUUUUAUCGAAUUUUCGGCGGAUGCUUCCAAA [A14G C34A G44U C68U] | < 1e-05 | < 1e-05 |  |  | 
AUAAAAGCGCCAGAACUACAGAAAUGUAGUUGACGAGGAGGAUAUUUGUCGAAUUUUAGGCGGAUGCCACGAAA [G43U G44A A48G C58A U69A C71G] | < 1e-05 | < 1e-05 |  | < 1e-05 | < 1e-05
AUAAAAUCGCCAGAACUACAGAAAUGUAGUUAACGAGGAGGAAGUUUAUCGAAUUUUCGGCGGAUGCCUCCAAA [G7U G32A G43A] | < 1e-05 | < 1e-05 | < 1e-05 |  | < 1e-05
AUAAAAGCGCCAGAACUACAGAAAUGUAGUUGACGAGGAGGAGGUUUAUAGAAUUUGCGGCGGAUGCUUCCAAA [C50A U57G C68U] | < 1e-05 |  |  |  | < 1e-05
AUAAAAGCGCCAGAACUACAGAAAUGUAGUUGACAUUGGGGAGGUUUAUCGAACUUUCGGCGGAUGCUUCCAAA [G35A A36U G37U A39G U54C C68U] | 5.13e-05 ± 2.2e-05 |  |  |  | 
AUAAAAGCGCCAGAAAUACAGAAAUGUAGUUGACGGGGAGGAGGUUUAUCGAAUUUUCGGCGGAUGCCUCCAAA [C16A A36G] | < 1e-05 | < 1e-05 | < 1e-05 |  | < 1e-05
